Measurements published in IntAct's records for PubMed 26258305.

Columns and labels:
[1] = biological target: tif9_arath TIFY9 (UniProt Q93ZM9)
[2] = biological target: ti10b_arath TIFY10B (UniProt Q9S7M2)
[3] = biological target: tif5a_arath TIFY5A (UniProt Q8LBM2)
[4] = biological target: ti11b_arath TIFY11B (UniProt Q9C9E3)
[5] = biological target: ti10a_arath TIFY10A (UniProt Q9LMA8)
[6] = biological target: tif6b_arath TIFY6B (UniProt Q9LVI4)
[7] = biological target: tif3a_arath TIFY3A (UniProt Q9M246)
[8] = biological target: tif7_arath TIFY7 (UniProt Q8W4J8)
[9] = biological target: tif6a_arath TIFY6A (UniProt Q58G47)
[10] = biological target: tif3b_arath TIFY3B (UniProt Q9C5K8)
[11] = biological target: ti11a_arath TIFY11A (UniProt Q9LDU5)

Transcription factor MYC3 (Arabidopsis thaliana (Mouse-ear cress)), Q9FIP9 F151A, sequence (Q9FIP9 whole entry F151A): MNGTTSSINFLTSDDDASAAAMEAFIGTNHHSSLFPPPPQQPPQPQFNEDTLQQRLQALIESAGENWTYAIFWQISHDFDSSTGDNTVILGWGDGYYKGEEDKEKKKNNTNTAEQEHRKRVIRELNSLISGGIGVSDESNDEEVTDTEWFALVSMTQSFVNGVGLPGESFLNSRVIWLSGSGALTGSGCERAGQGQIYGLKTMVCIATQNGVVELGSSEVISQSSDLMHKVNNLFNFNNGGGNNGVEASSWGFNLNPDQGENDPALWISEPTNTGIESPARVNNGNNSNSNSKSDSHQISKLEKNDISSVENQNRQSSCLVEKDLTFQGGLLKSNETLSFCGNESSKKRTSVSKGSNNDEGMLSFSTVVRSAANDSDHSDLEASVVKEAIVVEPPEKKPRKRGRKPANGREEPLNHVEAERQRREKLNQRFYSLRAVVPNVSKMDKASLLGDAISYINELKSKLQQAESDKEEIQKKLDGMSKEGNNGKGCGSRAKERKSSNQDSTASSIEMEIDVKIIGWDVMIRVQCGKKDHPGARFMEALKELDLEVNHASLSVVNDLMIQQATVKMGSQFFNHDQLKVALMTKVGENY
Transcription factor MYC3 (Arabidopsis thaliana (Mouse-ear cress)), Q9FIP9 W92A;D94A;Y97A, sequence (Q9FIP9 whole entry W92A/D94A/Y97A): as the sequence (Q9FIP9 whole entry F151A) above, with W92A, D94A, Y97A, A151F counted along it
ti10a_arath TIFY10A, sequence (Q9LMA8 whole entry): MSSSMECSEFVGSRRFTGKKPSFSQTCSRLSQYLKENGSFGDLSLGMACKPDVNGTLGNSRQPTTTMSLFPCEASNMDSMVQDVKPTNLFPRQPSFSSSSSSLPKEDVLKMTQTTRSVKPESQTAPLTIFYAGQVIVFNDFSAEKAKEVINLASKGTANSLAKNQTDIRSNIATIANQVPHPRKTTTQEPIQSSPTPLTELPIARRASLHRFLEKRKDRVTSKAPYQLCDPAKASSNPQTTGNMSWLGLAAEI
tif5a_arath TIFY5A, sequence (Q8LBM2 whole entry): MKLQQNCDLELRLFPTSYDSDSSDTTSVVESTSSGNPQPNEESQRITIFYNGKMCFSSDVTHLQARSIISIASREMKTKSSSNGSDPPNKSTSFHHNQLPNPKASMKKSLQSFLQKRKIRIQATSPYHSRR
ti10b_arath TIFY10B, sequence (Q9S7M2 whole entry): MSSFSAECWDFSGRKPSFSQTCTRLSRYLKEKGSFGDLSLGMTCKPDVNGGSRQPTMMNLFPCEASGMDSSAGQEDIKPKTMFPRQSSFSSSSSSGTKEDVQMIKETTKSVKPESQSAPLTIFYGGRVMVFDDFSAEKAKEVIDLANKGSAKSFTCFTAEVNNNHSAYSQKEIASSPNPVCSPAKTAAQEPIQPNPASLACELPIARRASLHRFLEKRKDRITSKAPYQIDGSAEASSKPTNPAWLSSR
tif7_arath TIFY7, sequence (Q8W4J8 whole entry): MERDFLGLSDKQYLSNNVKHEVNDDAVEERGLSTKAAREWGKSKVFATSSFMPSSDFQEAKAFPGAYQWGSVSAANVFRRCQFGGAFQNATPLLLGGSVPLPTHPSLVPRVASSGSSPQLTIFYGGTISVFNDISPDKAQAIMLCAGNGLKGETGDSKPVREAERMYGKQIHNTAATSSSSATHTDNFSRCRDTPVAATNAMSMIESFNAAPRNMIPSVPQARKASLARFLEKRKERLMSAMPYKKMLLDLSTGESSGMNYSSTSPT
Transcription factor MYC3 (Arabidopsis thaliana (Mouse-ear cress)), Q9FIP9 L152A, sequence (Q9FIP9 whole entry L152A): as the sequence (Q9FIP9 whole entry F151A) above, with A151F, L152A counted along it
tif6a_arath TIFY6A, sequence (Q58G47 whole entry): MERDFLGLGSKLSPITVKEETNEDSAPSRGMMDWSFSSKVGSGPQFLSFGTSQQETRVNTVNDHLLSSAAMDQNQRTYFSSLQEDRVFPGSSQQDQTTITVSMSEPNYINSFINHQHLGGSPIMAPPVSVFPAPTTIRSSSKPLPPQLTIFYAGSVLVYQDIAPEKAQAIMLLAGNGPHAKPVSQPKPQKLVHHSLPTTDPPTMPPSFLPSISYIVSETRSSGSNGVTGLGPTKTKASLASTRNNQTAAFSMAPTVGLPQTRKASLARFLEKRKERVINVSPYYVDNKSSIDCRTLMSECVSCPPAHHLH
Transcription factor MYC3 (Arabidopsis thaliana (Mouse-ear cress)), Q9FIP9 M155A, sequence (Q9FIP9 whole entry M155A): as the sequence (Q9FIP9 whole entry F151A) above, with A151F, M155A counted along it
tif6b_arath TIFY6B, sequence (Q9LVI4 whole entry): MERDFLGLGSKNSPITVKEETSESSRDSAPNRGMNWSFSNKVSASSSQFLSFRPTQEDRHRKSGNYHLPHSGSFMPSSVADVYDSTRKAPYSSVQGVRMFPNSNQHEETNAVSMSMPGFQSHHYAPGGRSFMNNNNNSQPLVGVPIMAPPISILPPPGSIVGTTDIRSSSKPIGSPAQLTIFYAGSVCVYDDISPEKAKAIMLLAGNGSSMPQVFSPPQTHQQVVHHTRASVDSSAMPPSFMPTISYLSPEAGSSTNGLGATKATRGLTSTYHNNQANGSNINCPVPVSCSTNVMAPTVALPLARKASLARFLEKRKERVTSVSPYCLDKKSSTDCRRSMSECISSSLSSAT
ti11b_arath TIFY11B, sequence (Q9C9E3 whole entry): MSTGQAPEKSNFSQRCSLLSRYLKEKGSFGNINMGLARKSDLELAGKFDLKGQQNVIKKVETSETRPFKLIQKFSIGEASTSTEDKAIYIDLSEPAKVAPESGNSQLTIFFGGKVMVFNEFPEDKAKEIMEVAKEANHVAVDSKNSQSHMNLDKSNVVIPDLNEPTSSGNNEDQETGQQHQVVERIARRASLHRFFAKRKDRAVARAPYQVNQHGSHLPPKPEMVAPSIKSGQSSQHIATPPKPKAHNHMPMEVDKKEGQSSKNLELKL
Transcription factor MYC3 (Arabidopsis thaliana (Mouse-ear cress)), Q9FIP9 L152A;M155A, sequence (Q9FIP9 whole entry L152A/M155A): as the sequence (Q9FIP9 whole entry F151A) above, with A151F, L152A, M155A counted along it

Row | Substance | effect of a mutation on the interaction [1] | effect of a mutation on the interaction [2] | effect of a mutation on the interaction [3] | effect of a mutation on the interaction [4] | effect of a mutation on the interaction [5] | effect of a mutation on the interaction [6] | effect of a mutation on the interaction [7] | effect of a mutation on the interaction [8] | effect of a mutation on the interaction [9] | effect of a mutation on the interaction [10] | effect of a mutation on the interaction [11]
1 | Transcription factor MYC3 (Arabidopsis thaliana (Mouse-ear cress)), Q9FIP9 F151A | decreasing interaction strength | decreasing interaction strength | decreasing interaction strength | decreasing interaction strength | decreasing interaction strength | disrupting interaction strength | decreasing interaction strength | decreasing interaction strength | disrupting interaction strength | disrupting interaction strength | disrupting interaction strength
2 | Transcription factor MYC3 (Arabidopsis thaliana (Mouse-ear cress)), Q9FIP9 W92A;D94A | – | – | – | – | – | – | – | – | disrupting interaction strength | – | –
3 | Transcription factor MYC3 (Arabidopsis thaliana (Mouse-ear cress)), Q9FIP9 F151A;M155A | decreasing interaction strength | disrupting interaction strength | disrupting interaction strength | decreasing interaction strength | decreasing interaction strength | disrupting interaction strength | disrupting interaction strength | disrupting interaction strength | disrupting interaction strength | disrupting interaction strength | disrupting interaction strength
4 | Transcription factor MYC3 (Arabidopsis thaliana (Mouse-ear cress)), Q9FIP9 M155A | – | – | – | decreasing interaction strength | – | disrupting interaction strength | – | disrupting interaction strength | disrupting interaction strength | disrupting interaction strength | decreasing interaction strength
5 | Transcription factor MYC3 (Arabidopsis thaliana (Mouse-ear cress)), Q9FIP9 W92A;D94A;Y97A | disrupting interaction strength | disrupting interaction strength | disrupting interaction strength | disrupting interaction strength | disrupting interaction strength | disrupting interaction strength | disrupting interaction strength | disrupting interaction strength | disrupting interaction strength | disrupting interaction strength | disrupting interaction strength
6 | Transcription factor MYC3 (Arabidopsis thaliana (Mouse-ear cress)), Q9FIP9 D94A;Y97A | – | – | – | decreasing interaction strength | – | decreasing interaction strength | – | decreasing interaction strength | decreasing interaction strength | – | decreasing interaction strength
7 | Transcription factor MYC3 (Arabidopsis thaliana (Mouse-ear cress)), Q9FIP9 F151A;L152A | disrupting interaction strength | disrupting interaction strength | disrupting interaction strength | disrupting interaction strength | disrupting interaction strength | disrupting interaction strength | disrupting interaction strength | disrupting interaction strength | disrupting interaction strength | disrupting interaction strength | disrupting interaction strength
8 | Transcription factor MYC3 (Arabidopsis thaliana (Mouse-ear cress)), Q9FIP9 F151A;L152A;M155A | disrupting interaction strength | disrupting interaction strength | disrupting interaction strength | disrupting interaction strength | disrupting interaction strength | disrupting interaction strength | disrupting interaction strength | disrupting interaction strength | disrupting interaction strength | disrupting interaction strength | disrupting interaction strength
9 | Transcription factor MYC3 (Arabidopsis thaliana (Mouse-ear cress)), Q9FIP9 W92A | – | – | – | – | – | – | – | – | disrupting interaction strength | – | –
10 | Transcription factor MYC3 (Arabidopsis thaliana (Mouse-ear cress)), Q9FIP9 L152A | decreasing interaction strength | decreasing interaction strength | – | decreasing interaction strength | decreasing interaction strength | disrupting interaction strength | decreasing interaction strength | disrupting interaction strength | disrupting interaction strength | disrupting interaction strength | disrupting interaction strength
11 | Transcription factor MYC3 (Arabidopsis thaliana (Mouse-ear cress)), Q9FIP9 L152A;M155A | disrupting interaction strength | disrupting interaction strength | disrupting interaction strength | disrupting interaction strength | disrupting interaction strength | disrupting interaction strength | disrupting interaction strength | disrupting interaction strength | disrupting interaction strength | disrupting interaction strength | disrupting interaction strength
12 | Transcription factor MYC3 (Arabidopsis thaliana (Mouse-ear cress)), Q9FIP9 Y97A | – | – | – | – | – | – | – | – | disrupting interaction strength | – | –
13 | Transcription factor MYC3 (Arabidopsis thaliana (Mouse-ear cress)), Q9FIP9 D94N | – | – | – | – | – | disrupting interaction strength | – | disrupting interaction strength | disrupting interaction strength | – | –
14 | Transcription factor MYC3 (Arabidopsis thaliana (Mouse-ear cress)), Q9FIP9 W92A;Y97A | decreasing interaction strength | disrupting interaction strength | decreasing interaction strength | disrupting interaction strength | decreasing interaction strength | disrupting interaction strength | decreasing interaction strength | disrupting interaction strength | disrupting interaction strength | disrupting interaction strength | disrupting interaction strength
15 | Transcription factor MYC3 (Arabidopsis thaliana (Mouse-ear cress)), Q9FIP9 D94A | – | – | – | – | – | – | – | – | disrupting interaction strength | – | –
